Results: patent US10227575B2, “Multi-domain enzymes having cutinase activity, compositions comprising same and uses thereof” (OZYMES, priority 2015, dated 2019)

What was measured:
[1] = Substrate range on p-NP esters, KrCUT versus KrCUT189; type: biochemical
Procedure: (§1) Esterase activity was determined by monitoring the formation of pNP at 410 nm from various pNP-esters using a Beckman UV spectrophotometer (model DU 640) (21). Substrates were dissolved in isopropanol and were added to 50 mM sodium phosphate buffer pH 8.0 to give 10% (v/v) total isopropanol concentration in a 1 mL reaction volume. pNP-butyrate was used at a final concentration of 1.2 mM. For pNP-caprylate, myristate and palmitate, the final concentration ranged from 0.1 to 0.5 mM. The reaction (1 mL) was started by adding an appropriate amount of enzyme. One enzyme unit (U) is defined as the amount of enzyme that produced 1 μmol of product (pNP) per min; specific activity is expressed as U/mg protein. A molar extinction coefficient of 15 mM^−1 cm^−1 for pNP is used for calculating enzyme activity.

[2] = Adsorption assay on PHB granules (Langmuir isotherm); type: binding
Procedure: Purified KrCUT of concentrations ranging from 0.16 to 3.2 mg/mL were mixed with 25 mg PHB in 50 mM sodium phosphate (pH 8.0) in a total volume of 1 mL and mixed by gently shaking for 3 h. The PHB polymer was removed by centrifugation and the concentration of protein in the supernatant was determined by the BCA method. The concentration of bound protein at a particular concentration of cutinase was calculated as the difference between a control without added PHB and free cutinase after incubation with PHB.
Adsorption assays were carried out following procedures of Kasuya et al. (1999). Purified KrCUT and KrCUT189 at concentrations ranging from 0.16 to 3.2 mg/mL were added to a suspension of 25 mg PHB in 50 mM sodium phosphate (pH 8.0) in a total volume 1 mL. The mixture was incubated at room temperature with gentle shaking for at least 3 h. The PHB polymer was removed by centrifugation and the concentration of protein in the supernatant was determined by the BCA method. The concentration of bound protein at a particular concentration of cutinase was calculated as the difference between a control without added PHB and free cutinase after incubation with PHB. An isotherm of [Bound](mg/mg PHB) vs [Free] (mM) was generated and binding parameters were determined by non-linear regression using the Langmuir equation:
[formula] where [E]=Ead+[E]e, is the concentration of the protein added; Emax is the maximum amount of protein adsorbed on the polyester granules, and K is the adsorption equilibrium constant of the protein.

[3] = Degradation of poly(1,3-propylene adipate); details: 2.5 μM, after 24 hours
[4] = pH optimum in Universal Buffer; type: biochemical; details: pH 5-11, p-nitrophenyl butyrate
Procedure: as §1
Universal Buffer solutions were prepared according to Britton and Robinson (Surinenaite et al., 2002), having the selected pH value from 5-11. Activity of KrCUT and KrCUT189 were measured at the indicated pH, using p-nitrophenyl butyrate as substrate as described in Example 1, section 1.6). Curves were obtained by plotting values of activity against pH.

[5] = Procedure: Molar masses of the samples were determined with universal calibration with the refractive index detector and the viscosity detector. The universal calibration curve was based on polystyrene standards [Polymer Laboratories (Amherst, Mass.) and Aldrich (Oakville, ON)] using the molar masses determined by the manufacturer and the intrinsic viscosities measured by the apparatus. The software OmniSEC™ software from Viscotek was used for data collection and calibration. Separation in THF was performed by injecting 100 μL of 1.5-2 mg/mL solutions of standards or samples into thermostatically controlled SuperRes™ columns [35° C.; PAS-102, PAS102.5, PAS-103L, each 300 mm×8 mm; PolyAnalytik (London, ON)]. The flow rate was 1 mL/min.
Alternatively, a thin film was prepared from 1 g of commercial available PCL pellets and used for degradation. The polymer was dissolved in dichloromethane in a 1 L beaker. The solvent was allowed to evaporate overnight and the resulting film dried to constant weight under reduced pressure. Prior to enzymatic treatment the film was cut into pieces (20 mg) of approximately 1.5 cm×1.5 cm and thickness of approximately 0.1 mm. The reaction mixture was monitored by HPLC and SEC as described above.
To quantify this further, pellets of polycaprolactone (PCL) as well as films of PCL were incubated with KrCUT at various enzyme concentrations (1.25 μM, 2.5 μM, and 5 μM representing 4.7, 9.5 and 19 enzyme Units) at 37° C. The degradation of the polymer was followed over time by analyzing aliquots of the reaction mixture by HPLC for the detection of the released monomer (6-hydroxyhexanoic acid) and characterization of the remaining polymer by SEC after lypholization of the sample.

B1: KrCUT189: truncated KrCUT lacking the T/P-rich linker and polymer-binding domain; cutinase catalytic domain, SEQ ID NO: 2 (protein)
chain: ATCSDVDVVFARGTGETPGLGVVGGPFVRSLTGELSDRTVTSHAVDYAASSSQASAGPGATAMSAHVREVAAACPSTRFVLGGYSQGATVTDIALGIRTGTTTGTPVPAELAGRVAAVVVFGNPLGLSGRTIATASSTYGPKSKDYCNSSDSVCGSAPKTGTGGHLSYASNGSTTDGARFAAGLVRAAG
modifications: Kineococcus radiotolerans; (1)..(189) KrCUT catalytic domain (KrCUT189)
activity towards pNB-acetate [1]: little activity
activity towards pNP-myristate compared to KrCUT [1]: higher
activity with various substrates compared to the full length protein [1]: lower activity
substrate giving the highest activity ([1]; p-NP esters): pNP-myristate
binding to PHB [2]: no binding
adipic acid found in the reaction mixture [3]: 17%
pH optimum [4]: 8
degradation of PCL pellets and PCL films compared with KrCUT [5]: Nearly identical results
